Test results: patent US20200181261A1 (Bayer, published 2020)

What was measured:
[1] = molecular target: T1, Macaca fascicularis CEACAM6, extracellular (mature form), obtained by Factor Xa cleavage of TPP-2443 (Macaca fascicularis); test: ELISA, antigen coated
T1 construct: used biotinylated in some assays; also called APP-319; Cynomolgus CEACAM6
T1 chain: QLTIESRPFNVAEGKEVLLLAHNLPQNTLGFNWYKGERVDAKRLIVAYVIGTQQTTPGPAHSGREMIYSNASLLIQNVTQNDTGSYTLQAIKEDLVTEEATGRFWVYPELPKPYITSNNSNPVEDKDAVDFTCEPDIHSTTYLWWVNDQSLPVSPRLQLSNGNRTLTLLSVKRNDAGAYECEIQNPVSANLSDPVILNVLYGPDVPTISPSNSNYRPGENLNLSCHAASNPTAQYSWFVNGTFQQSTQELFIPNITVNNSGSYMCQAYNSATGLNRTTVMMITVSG
Description: (§1) ELISAs were used to characterize the binding of antibodies to various CEACAM paralogs and orthologs. Black 384-well plates were coated with […] of various CEACAM protein preparations at 2 μg/ml in coating buffer (Candor) for 1 h at 37° C. After one wash with PBS/0.05% Tween-20, wells were blocked with 100% Smart Block (Candor) for one hour at 37° C. After three washes with PBS/0.05% Tween-20, dilution series of the antibodies in PBS/0.05% Tween-20/10% Smart Block ranging from 2 μg/ml to 2 ng/ml were added and the plates were incubated for 1 h at room temperature. After three washes with PBS/0.05% Tween-20, an appropriate secondary antibody was added. For detection of proteins with a human Fc such as TPP-1173, an anti-human IgG HRP (Sigma A0170) was used at 1:10.000 dilution. For detection of proteins with a mouse Fc such as TPP-1744 an anti-mouse IgG HRP (ThermoScientific 31432) was used at 1:10.000 dilution. PBS/0.05% Tween-20/10% Smart Block was used as dilution buffer. The plates were incubated for 1 hour at room temperature. After three washes, the plates were developed with Amplex Red (Life Technologies) and fluorescence was read at an emission wavelength of 590 nm. GraphPad Prism 6.0 software was used to calculate EC₅₀ values using four-parameter non-linear curve fit. […]

[2] = molecular target: T2, human CEACAM5, extracellular (mature form), R&D Systems 4128-CM (human, UniProt P06731 35-685); test: ELISA, antigen coated
T2 construct: used biotinylated in some assays; also called TPP-1438; hC5
T2 sequence: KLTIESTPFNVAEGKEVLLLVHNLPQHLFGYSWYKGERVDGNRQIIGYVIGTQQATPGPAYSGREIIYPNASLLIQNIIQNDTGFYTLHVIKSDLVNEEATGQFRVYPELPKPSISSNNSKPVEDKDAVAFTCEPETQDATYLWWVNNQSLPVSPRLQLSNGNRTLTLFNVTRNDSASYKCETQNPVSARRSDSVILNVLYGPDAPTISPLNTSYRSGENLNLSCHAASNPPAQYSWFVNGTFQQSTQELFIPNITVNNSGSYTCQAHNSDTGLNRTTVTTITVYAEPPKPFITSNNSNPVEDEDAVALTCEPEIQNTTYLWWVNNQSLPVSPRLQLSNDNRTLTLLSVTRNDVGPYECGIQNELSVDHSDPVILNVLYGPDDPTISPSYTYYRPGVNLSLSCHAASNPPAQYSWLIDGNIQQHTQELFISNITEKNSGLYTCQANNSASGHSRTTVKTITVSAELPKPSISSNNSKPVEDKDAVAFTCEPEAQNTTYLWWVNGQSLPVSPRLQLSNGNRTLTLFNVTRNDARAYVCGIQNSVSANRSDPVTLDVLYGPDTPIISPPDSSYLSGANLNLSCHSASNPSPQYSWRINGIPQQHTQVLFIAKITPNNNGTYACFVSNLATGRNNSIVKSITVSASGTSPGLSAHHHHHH
Description: as §1

[3] = molecular target: T3, Macaca mulatta CEACAM6-Xa-Fc-His (Macaca mulatta); test: SPR, antibody captured, antigen as analyte
T3 construct: extracellular (mature form) fused to Factor Xa site, human IgG1 Fc and His tag; the entry is the whole fusion; also called TPP-1306; MM WT
Description: Surface plasmon resonance (SPR) experiments for quantitative binding analyses were performed either using a Biacore T100, Biacore T200 or a Biacore 4000 instrument (GE Healthcare Biacore, Inc.) equipped with Series S Sensor Chips CM5 (GE Healthcare Biacore, Inc.). Binding assays were carried out at 25° C. with assay buffer HBS-EP+(10 mM HEPES pH 7.4, 150 mM NaCl, 3 mM EDTA, 0.05% Surfactant P20). Antibodies were captured with an anti-hIgG capture antibody covalently immobilized to the chip surface via amine coupling chemistry. Reagents for amine coupling (1-ethyl-3-(3-dimethylaminopropyl) carbodiimide hydrochloride (EDC), N-hydroxysuccinimide (NHS), ethanolamine-HCl pH 8.5) were used from the Amine Coupling Kit (GE Healthcare, product code BR-1000-50). Anti-hIgG, anti-mIgG capture antibodies and immobilization buffer (10 mM sodium acetate pH 5.0) were used from the Human Antibody Capture Kit (GE Healthcare, BR-1008-39) and the Mouse Antibody Capture Kit (GE Healthcare, BR-1008-38), respectively. The sensor chip surface was activated with a freshly prepared solution of 0.2 M EDC and 0.05 M NHS passed over the chip surface for 420 s at a flow rate of 10 μl/min, followed by an injection of anti-hIgG or anti-mIgG capture antibody (dissolved to 25 μg/ml in immobilization buffer) for 180 s at a flow rate of […]. Excess of activated groups were blocked with a 1 molar solution of ethanolamine injected at a flow rate of 10 μl/min for 420 s.
CEACAM antigens were used as analyte to determine KD values. Antibodies were captured for 20 s at a flow rate of 10 μl/min prior to each analyte injection.
Obtained sensorgrams were double-referenced, i.e. in-line reference cell correction followed by buffer sample subtraction.

[4] = molecular target: T4, Human CEACAM6-Dom2-MacMul-Xa-Fc-His (human, Domain 2 from Macaca mulatta); test: domain mapping ELISA, antigen coated
T4 construct: domain chimera fused to Xa-Fc-His; also called TPP-1792; DOM2 MM
Description: (§2) For ELISA analysis, the Fc-fused domain chimeras and the single domain 1 were coated on Nunc MaxiSorb plates and blocked with SmartBlock solution. After incubation with an IgG-concentration series (1 nM-1000 nM) for 1 h, plates were washed with PBS/T. Analysis of the bound IgGs to the CEACAM6 domain constructs was achieved over detection via Anti-Human IgG (Fab specific)-Peroxidase antibody (A0293, Sigma). Fluorescence detection was performed with AmplexRed (A12222, Invitrogen) following standard protocols.

[5] = molecular target: T5, Human CEACAM6-Domain 1-His (expressed in E. coli), wild-type (human); test: domain mapping ELISA, antigen coated
T5 construct: entry includes the His tag; also called hDOM1
T5 chain: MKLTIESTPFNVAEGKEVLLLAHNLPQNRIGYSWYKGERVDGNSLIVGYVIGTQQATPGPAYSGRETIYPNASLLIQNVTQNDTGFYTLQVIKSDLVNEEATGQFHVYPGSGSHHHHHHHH
Description: as §2

B1: Neo201 (human IgG1) (antibody, V domains shown)
VH: QVQLVQSGAEVKKPGASVKVSCKASGYTFTDYAMHWVRQAPGQRLEWMGLISTYSGDTKYNQNFQGRVTMTVDKSASTAYMELSSLRSEDTAVYYCARGDYSGSRYWFAYWGQGTLVTVSS
VL: DIQMTQSPSSLSASVGDRVTITCQASENIYGALNWYQRKPGKSPKLLIYGASNLATGMPSRFSGSGSGTDYTFTISSLQPEDIATYYCQQVLSSPYTFGGGTKLEIKR
notes: based on US20130189268; also called TPP-1173; Neo201-hIgG1
EC50 [1]: 1.35 nM
EC50 [2]: 0.09 nM
Kd [3]: 23 nM
binding result [4]: binds
binding result [5]: no binding (tested: 1000 nM IgG)
